# Patent US20090291081A1 (AbbVie / Abbott, published 2009)
# Where “and” joins values, the source holds several entries; their conditions need not be identical. Identical values can stand only once.
# T1: human IL-1α (human, UniProt P01583 113-271)
# T1 sequence (looked up): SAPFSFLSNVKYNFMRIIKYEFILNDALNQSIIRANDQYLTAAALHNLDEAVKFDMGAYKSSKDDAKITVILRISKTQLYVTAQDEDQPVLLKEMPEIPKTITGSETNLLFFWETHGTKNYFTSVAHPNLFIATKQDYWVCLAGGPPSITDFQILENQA
# T2: human IL-1α (human, UniProt P01583 113-271)
# T2 construct: also called IL-1alpha; hIL-1α
# T2 sequence (looked up): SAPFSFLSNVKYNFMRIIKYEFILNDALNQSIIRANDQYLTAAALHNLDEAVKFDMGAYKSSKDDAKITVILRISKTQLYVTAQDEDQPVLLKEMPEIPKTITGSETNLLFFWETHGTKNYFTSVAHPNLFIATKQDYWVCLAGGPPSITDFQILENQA
# Key:
# human IL-1α [1] = biological target: T1, human IL-1α; assay: cell-based or functional assay
# human IL-1β [2] = biological target: T3, human IL-1β (human, UniProt P01584 117-269); assay: cell-based or functional assay
# human IL-1α [3] = biological target: T1, human IL-1α; assay: cell-based or functional assay; remark: listed apart in the source
# human IL-1β [4] = biological target: T3, human IL-1β; assay: cell-based or functional assay; remark: listed apart in the source
# human IL-1α [5] = biological target: T1, human IL-1α; assay: cell-based or functional assay; remark: listed apart in the source
# human IL-1β [6] = biological target: T3, human IL-1β; assay: cell-based or functional assay; remark: listed apart in the source
# human IL-1α [7] = biological target: T2, human IL-1α; assay: Table 62 IC50; RBA presumed
# human IL-1α [8] = biological target: T2, human IL-1α; assay: cell-based or functional assay; remark: listed apart in the source
# human IL-1α [9] = biological target: T2, human IL-1α; assay: Table 62 KD; BIAcore presumed
binder,measurement,setting,value
"Fab ABT1-96/ABT2-42 (Fab, V domains shown) VH: EVQLLESGGGLVQPGGSLRLSCAASGFTFNQYNMFWVRQAPGKGLEWVSVISGSGRFTYADSVKGRFTISRDNSKNTLYLQMNSLRAEDTAVYYCAKGWWRRDPPFDYWGQGTLVTVSS VL: DIQMTQSPSSLSASVGDRVTITCRASQYIEKWLTWYQQKPGKAPTLLIYRGSLLQSGVPRFSGSGSGTDFTLTISSLQPEDFATYYCQQTEYWPFTFGQGTKVEIKR",Fab IL-1α ND10,human IL-1α [1],3 nM
same,Fab IL-1β ND10,human IL-1β [2],10 nM
"Fab ABT1-96/ABT2-13 (Fab, V domains shown) V domain 1: EVQLLESGGGLVQPGGSLRLSCAASGFTFNQYNMFWVRQAPGKGLEWVSVISGSGRFTYADSVKGRFTISRDNSKNTLYLQMNSLRAEDTAVYYCAKGWWRRDPPFDYWGQGTLVTVSS V domain 2: EVQLLESGGGLVQPGGSLRLSCAASGFTFRDYVMYWARQAPGKGLEWVSRIDPMGSSTYYADSVKGRFTISRDNSKNTLYLQMNSLRAEDTAVYYCAKPEGNFDYWGQGTLVTVSS",Fab IL-1α ND10,human IL-1α [1],0.9 nM
same,Fab IL-1β ND10,human IL-1β [2],80 nM
"Fab ABT1-6-23/ABT2-46 (Fab, V domains shown) VH: EVQLLESGGGLVQPGGSLRLSCAASGFTFVRYDMAWVRQAPGKGLEWVSSIYKSGALTSYDSVKGRFTISRDNSKNTLYLQMNSLRAEDTAVYYCAKGWASFDYWGQGTLVTVSS VL: DIQMTQSPSSLSASVGDRVTITCRASQSIIEWLSWYQQKPGKAPKLLIYRTSVLQSGVPSRFSGSGSGTDFTLTISSLQPEDFATYYCQQNEFWPFTFGQGTKVEIKR",Fab IL-1α ND10,human IL-1α [1],4 nM
same,Fab IL-1β ND10,human IL-1β [2],150 nM
"ABT2-108-538x/ABT1-95-A3 hu IgG1mut 234, 235/K (bispecific antibody, V domains shown) VH: EVQLLESGGGLVQPGGSLRLSCAASGFTFADEGMMWVRQAPGKGLEWVSRITYSGKNTYYADSVKGRFTISRDNSKNTLYLQMNSLRAEDTAVYYCAKYTGRILGHHLFDYWGQGTLVTVSS VL: DIQMTQSPSSLSASVGDRVTITCRASKPGVRNMRWYQQKPGKAPKLLIYSVSYLEPGVPSRFSGSGSGTDFTLTISSLQPEDFATYHCLQGYRWPPTFGQGTKVEIKR",MRC5 IL-1α,human IL-1α [3],0.032 nM
same,MRC5 IL-1β,human IL-1β [4],0.023 nM
same,IL-1α IC50,human IL-1α [5],0.095 nM
same,IL-1β IC50,human IL-1β [6],0.035 nM
"ABT2-108-521/ABT1-122 hu IgG1/K wt (bispecific antibody, V domains shown) VH: EVQLLESGGGLVQPGGSLRLSCAASGFTFAEYTMMWVRQAPGKGLEWVSRIGQDGKNTYYADSVKGRFTISRDNSKNTLYLQMNSLRAEDTAVYYCAKYTGRILGHHLFDYWGQGTLVTVSS VL: DIQMTQSPSSLSASVGDRVTITCRASQPIWTELNWYQQKPGKAPKLLIYGSSSLQSGVPRFSGSGSGTDFTLTISSLQPEDFATYYCQQFAYFPATFGQGTKVEIKR",MRC5 IL-1α,human IL-1α [3],1000 nM
same,MRC5 IL-1β,human IL-1β [4],1 nM
same,IL-1α IC50,human IL-1α [5],1000 nM
same,IL-1β IC50,human IL-1β [6],0.2 nM and 0.4 nM
"ABT2-108/ABT1-141 hu IgG1/K wt (bispecific antibody, V domains shown) VH: EVQLLESGGGLVQPGGSLRLSCAASGFTFAEYTMMWVRQAPGKGLEWVSRIGQDGKNTYYADSVKGRFTISRDNSKNTLYLQMNSLRAEDTAVYYCAKYTGRVGVHHLFDYWGQGTLVTSS VL: DIQMTQSPSSLSASVGDRVTITCRASQWIQKQLAWYQQKPGKAPKLLIYSSSYLQSGVPRFSGSGSGTDFTLTISSLQPEDFATYYCQQHLRVPFTFGQGTKVEIKR",MRC5 IL-1α,human IL-1α [3],1500 nM
same,MRC5 IL-1β,human IL-1β [4],22 nM
same,IL-1α IC50,human IL-1α [5],1000 nM and 1500 nM and 3000 nM
"Fab ABT1-141/ABT2-65 (Fab, V domains shown) VH: EVQLLESGGGLVQPGGSLRLSCAASGFTFEDYQMGWVRQAPGKGLEWVSSISAMGNRTYYADSVKGRFTISRDDSKNTLYLQMNSLRAEDTAVYYCAKNLVRTQSKMWMFDYWGQGTLVTVSS VL: DIQMTQSPSSLSASVGDRVTITCRASQWIQKQLAWYQQKPGKAPKLLIYSSSYLQSGVPRFSGSGSGTDFTLTISSLQPEDFATYYCQQHLRVPFTFGQGTKVEIKR",Fab IL-1α ND10,human IL-1α [1],80 nM
same,Fab IL-1β ND10,human IL-1β [2],300 nM
"Fab ABT1-122/ABT2-108 (Fab, V domains shown) VH: EVQLLESGGGLVQPGGSLRLSCAASGFTFAEYTMMWVRQAPGKGLEWVSRIGQDGKNTYYADSVKGRFTISRDNSKNTLYLQMNSLRAEDTAVYYCAKYTGRVGVHHLFDYWGQGTLVTSS VL: DIQMTQSPSSLSASVGDRVTITCRASQPIWTELNWYQQKPGKAPKLLIYGSSSLQSGVPRFSGSGSGTDFTLTISSLQPEDFATYYCQQFAYFPATFGQGTKVEIKR",Fab IL-1α ND10,human IL-1α [1],3 nM
same,Fab IL-1β ND10,human IL-1β [2],50 nM
"Fab ABT1-141/ABT2-108 (Fab, V domains shown) VH: EVQLLESGGGLVQPGGSLRLSCAASGFTFAEYTMMWVRQAPGKGLEWVSRIGQDGKNTYYADSVKGRFTISRDNSKNTLYLQMNSLRAEDTAVYYCAKYTGRVGVHHLFDYWGQGTLVTSS VL: DIQMTQSPSSLSASVGDRVTITCRASQWIQKQLAWYQQKPGKAPKLLIYSSSYLQSGVPRFSGSGSGTDFTLTISSLQPEDFATYYCQQHLRVPFTFGQGTKVEIKR",Fab IL-1α ND10,human IL-1α [1],10 nM
same,Fab IL-1β ND10,human IL-1β [2],15 nM
"ABT2-65-17/ABT1-141-25 hu IgG1/K wt (bispecific antibody, V domains shown) VH: EVQLLESGGGLVQPGGSLRLSCVASGFTFEDYQMGWVRQAPGKGLEWVSSISAMGNRTYYADSVKGRFTISRDDSKNTLYLQMNSLRAEDTAVYYCAQNLVRLGRSRWMFDYWGQGTLVTVSS VL: DIQMTQSPSSLSASVGDRVTITCRASQWIQKQLAWYQQKPGKAPKLLIYSSSYLQSGVPSRFSGSGSGTDFTLTISSLQPEDFATYYCQQHLRVPMTFGQGTKVEIKR",MRC5 IL-1α,human IL-1α [3],400 nM
same,MRC5 IL-1β,human IL-1β [4],0.975 nM
same,IL-1α IC50,human IL-1α [5],400 nM
same,IL-1β IC50,human IL-1β [6],1 nM
"ABT2-65-166/ABT1-95-A5 hu IgG1mut 234, 235/K (bispecific antibody, V domains shown) VH: EVQLLESGGGLVQPGGSLRLSCAASGFTFEDYQMGWVRQAPGKGLEWVSSISAMGGRTYYADSVKGRFTISRDNSKNTLYLQMNSLRAEDTAVYYCAQNLVRLGRSRWMFDYWGQGTLVTVSS VL: DIQMTQSPSSLSASVGDRVTITCRASRTPVRNLRWYQQKPGKAPKLLIYSRSFLEPGVPSRFSGSGSGTDFTLTISSLQPEDFATYHCLQGYRWPPTFGQGTKVEIKR",MRC5 IL-1α,human IL-1α [3],0.014 nM
same,MRC5 IL-1β,human IL-1β [4],0.197 nM
same,IL-1α IC50,human IL-1α [5],0.015 nM
same,IL-1β IC50,human IL-1β [6],0.145 nM
"ABT1-95-4 (other, VK dAb) VL: DIQMTQSPSSLSASVGDRVTITCRASQPIVRNLRWYQQKPGKAPKLLIYSSSYLQSGVPSRFSGSGSGTDFTLTISSLQPEDFATYHCQQGYRWPVTFGQGTKVEIKR",IC50,human IL-1α [7],0.7 nM
same,ND50,human IL-1α [8],2 nM
same,Kd,human IL-1α [9],1.5 nM
"ABT1-95-8 (other, VK dAb) VL: DIQMTQSPSSLSASVGDRVTITCRASQPIQGNLRWYQQKPGKAPKLLIYSSSYLERGVPSRFSGSGSGTDFTLTISSLQPEDFATYHCQQGYRWPVTFGQGTKVEIKR",IC50,human IL-1α [7],0.8 nM
same,ND50,human IL-1α [8],1 nM
same,Kd,human IL-1α [9],2.1 nM
"ABT1-95-9 (other, VK dAb) VL: DIQMTQSPSSLSASVGDRVTITCRASQPIQGNLRWYQQKPGKAPKLLIYSSSYLERGVPSRFSGSGSGTDFTLTISSLHPEDFATYHCQQGYRWPVTFGQGTKVEIKR",IC50,human IL-1α [7],0.8 nM
same,Kd,human IL-1α [9],1 nM
"ABT1-95-14 (other, VK dAb) VL: DIQMTQSPSSLSASVGDRVTITCRASQPIVKNLRWYQQKPGKAPKLLIYSSSYLERGVPSRFSGSGSGTDFTLTISSLQPEDFATYHCQQGYRWPVTFGQGTKVEIKR",IC50,human IL-1α [7],0.3 nM
same,ND50,human IL-1α [8],0.25 nM
same,Kd,human IL-1α [9],1.2 nM
"ABT1-95-12 (other, VK dAb) VL: DIQMTQSPSSLSASVGDRVTITCRASQPIHGNLRWYQQKPGKAPKLLIYSSSYLESWVPSRFSGSGSGTDFTLTISSLQPEDFATYHCQQGYRWPVTFGQGTKVEIKR",IC50,human IL-1α [7],0.8 nM
same,Kd,human IL-1α [9],0.9 nM
"ABT1-95-11 (other, VK dAb) VL: DIQMTQSPSSLSASVGDRVTITCRASQPIQGNLRWYQQKPGIAPKLLIYSSSYLERGVPSRFSGSGSGTDFTLTISSLHPEDLATYHCQQGYRWPVTFGQGTKVEIKR",IC50,human IL-1α [7],0.9 nM
same,ND50,human IL-1α [8],0.3 nM
same,Kd,human IL-1α [9],1.1 nM
"ABT1-95-13 (other, VK dAb) VL: DIQMTQSPSSLSASVGDRVTITCRASQPIVRNLRWYQQKPGKAPKLLIYSSSYLERGVPSRFSGSGSGTDFTLTISSLQPEDFATYHCQQGYRWPVTFGQGTKVEIKR",IC50,human IL-1α [7],0.3 nM
same,ND50,human IL-1α [8],0.12 nM
same,Kd,human IL-1α [9],0.9 nM
"ABT1-95-3 (other, VK dAb) VL: DIQMTQSPSSLSASVGDRVTITCRASQPIHGNLRWYQQKPGKAPKLLIYSSSYLQSGVPSRFSGSGSGTDFTLTISSLQPEDFATYHCQQGYRWPVTFGQGTKVEIKR",IC50,human IL-1α [7],4 nM
same,ND50,human IL-1α [8],80 nM
same,Kd,human IL-1α [9],7 nM
"ABT1-95-6 (other, VK dAb) VL: DIQMTQSPSSLSASVGDRVTITCRASQPIQGNLRWYQQKPGKAPKLLIYSSSYLESGVPSRFSGSGSGTDFTLTISSLQPEDFATYHCQQGYRWPVTFGQGTKVEIKR",IC50,human IL-1α [7],0.8 nM
same,ND50,human IL-1α [8],1 nM
same,Kd,human IL-1α [9],2.1 nM
"ABT1-95-15 (other, VK dAb) VL: DIQMTQSPSSLSASVGDRVTITCRASQPIVRNLRWYQQKPGKAPKLLIYSSSYLEPGVPSRFSGSGSGTDFTLTISSLQPEDFATYHCQQGYRWPVTFGQGTKVEIKR",Kd,human IL-1α [9],0.4 nM
"ABT1-95-10 (other, VK dAb) VL: DIQMTQSPSSLSASVGDRVTITCRASQPIQGNLRWYQQKPGKAPKLLIYSSSYLERGVPSRFSGSGSGTDFTLTISSLHPEDLATYHCQQGYRWPVTFGQGTKVEIKR",IC50,human IL-1α [7],0.8 nM
same,Kd,human IL-1α [9],0.9 nM
